A word on the stoichiometry N: it is a count of units in the complex or per binding partner.

Data on 1 substance can be found in paper doi:10.1101/2025.08.29.672660.

The target of this test is HdpA^S-LEHHHHHH (HdpA devoid of its N-terminal hydrophobic segment, His-tagged) (Helicobacter pylori strain 26695). Kind of test: crystal structure.

The substance “LhiA^S-SAHHHHHH (LhiA devoid of its predicted signal peptide and lipidated cysteine, His-tagged) (natural protein)” yielded a stoichiometry N of 1.
